Measurements reported in US8097440B1, “Engineered microorganisms capable of producing target compounds under anaerobic conditions” (Gevo, Inc., priority 2008, dated 2012).

Substrate: CC(C)C=O
Assay: Alcohol dehydrogenase kinetic assay, Ec_YqhD
Format: biochemical, E. coli
Conditions: other: NADPH as cofactor; conversion to isobutanol
Protocol: E. coli strain GEVO1745 was transformed by electroporation with one of plasmids pGV1705-A, pGV1748-A, pGV1749-A, or pGV1778-A. 50 mL of TB medium (23.1 g/L KH2PO4, 125.4 g/L K2HPO4, 12 g/L Bacto-tryptone, 24 g/L yeast extract, 4 ml/L glycerol) were inoculated to an initial OD600 of 0.2 using a 3 mL overnight LB culture of a single colony. The 50 mL culture was allowed to grow for 3-4 hrs at 250 rpm and 37° C. Protein expression was induced at an OD600 of 2-2.5 by the addition of IPTG to a final concentration of 1 mM. After the addition of IPTG, protein expression was allowed to continue for 20-24 hours at 225 rpm and 25° C.
Alcohol dehydrogenase (ADH) activity was assayed kinetically by monitoring the decrease in NAD(P)H concentration by measuring the absorbance at 340 nm. A reaction buffer was prepared containing 0.1 M potassium phosphate, 0.4 mM NAD(P)H, 10 mM isobutyraldehyde, 1 mM DTT, and 1 mM PMSF. Cell pellets were resuspended in 0.1 M potassium phosphate buffer containing 1 mM DTT and 1 mM PMSF at one fifth of the culture volume, i.e. 10 mL resuspension buffer for cell pellet from a 50 mL culture. The resuspended cells were lysed by sonication for 1 min with a 50% duty cycle. The reaction was initiated by the addition of 0.5 mL of the reaction buffer to 0.5 mL of clarified lysate in a cuvette. […]

B1: E. coli alcohol dehydrogenase Ec_YqhD, SEQ ID NO: 69 (Escherichia coli K-12) (protein)
chain: MNNFNLHTPTRILFGKGAIAGLREQIPHDARVLITYGGGSVKKTGVLDQVLDALKGMDVLEFGGIEPNPAYETLMNAVKLVREQKVTFLLAVGGGSVLDGTKFIAAAANYPENIDPWHILQTGGKEIKSAIPMGCVLTLPATGSESNAGAVISRKTTGDKQAFHSAHVQPVFAVLDPVYTYTLPPRQVANGVVDAFVHTVEQYVTKPVDAKIQDRFAEGILLTLIEDGPKALKEPENYDVRANVMWAATQALNGLIGAGVPQDWATHMLGHELTAMHGLDHAQTLAIVLPALWNEKRDTKRAKLLQYAERVWNITEGSDDERIDAAIAATRNFFEQLGVPTHLSDYGLDGSSIPALLKKLEEHGMTQLGENHDITLDVSRRIYEAAR
Km: 250 µM
